Data as given in patent US20200392228A1 (PANDION OPERATIONS, published 2020).
Like-named read-outs stand apart in the source and are kept apart here.

T1: mouse MAdCAM expressed on cells (mouse, UniProt Q61826 22-405)
T1 construct: whole, on cells
T1 sequence (looked up): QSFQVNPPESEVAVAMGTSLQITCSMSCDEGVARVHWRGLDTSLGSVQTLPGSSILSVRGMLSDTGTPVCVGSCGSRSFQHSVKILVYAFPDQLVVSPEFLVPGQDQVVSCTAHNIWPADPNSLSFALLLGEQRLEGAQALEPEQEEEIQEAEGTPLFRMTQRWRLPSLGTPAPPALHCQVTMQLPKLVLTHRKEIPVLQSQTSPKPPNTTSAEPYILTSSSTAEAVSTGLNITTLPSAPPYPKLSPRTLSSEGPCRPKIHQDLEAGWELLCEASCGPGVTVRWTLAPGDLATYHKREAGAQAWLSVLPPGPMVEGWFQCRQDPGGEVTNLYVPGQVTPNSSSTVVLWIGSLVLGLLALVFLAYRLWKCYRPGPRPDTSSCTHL

T2: human MAdCAM expressed on cells (human, UniProt Q13477 19-382)
T2 construct: whole, on cells; also called MADCAM1
T2 sequence (looked up): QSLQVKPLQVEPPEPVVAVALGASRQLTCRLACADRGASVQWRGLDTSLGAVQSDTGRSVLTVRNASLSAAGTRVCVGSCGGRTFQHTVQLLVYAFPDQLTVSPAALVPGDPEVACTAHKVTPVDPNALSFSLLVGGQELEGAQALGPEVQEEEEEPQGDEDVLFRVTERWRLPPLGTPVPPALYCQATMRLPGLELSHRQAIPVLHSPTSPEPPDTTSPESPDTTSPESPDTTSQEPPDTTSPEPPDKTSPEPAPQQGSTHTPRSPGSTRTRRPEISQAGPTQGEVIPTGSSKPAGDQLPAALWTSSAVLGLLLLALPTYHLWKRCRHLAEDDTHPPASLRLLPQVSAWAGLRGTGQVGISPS


What was measured:
Assay in all cases: cell binding
[1] = target: T1, mouse MAdCAM expressed on cells
[2] = target: T2, human MAdCAM expressed on cells
[3] = target: T1, mouse MAdCAM expressed on cells; remark: listed apart in the source

Row | Binder | binding result [1] | binding result [2] | binding result [3]
1 | MAdCAM antibody Clone ID 3 of Table 6 (scFv) (scFv) scFv: QVQLVQSGAEVKKPGASVKVSCKASGYPFIGQYLHWVRQAPGQGLEWMGIINPSGGSTSYAQKFQGRVTMTRDTSTSTVYMELSSLRSEDTAVYYCAREGRLSYGMDAWGQGTLVTVSSGGGGSGGGGSGGGGSGGGGSDIQMTQSPSSLSASVGDRVTITCRASQSISSYLAWYQQKPGKAPKLLIYGASTLESGVPSRFSGSGSGTDFTLTISSLQPEDFATYYCQQTWGPPFTFGQGTKLEIK | binds | binds | –
2 | MAdCAM antibody Clone ID 73 of Table 7 (IgG) (antibody, V domains shown, IgG format) VH: QVQLVQSGAEVKKPGASVKVSCKASGYTFTSNYVHWVRQAPGQGLEWMGRINPHSGDTSYAQKFQGRVTMTRDTSTSTVYMELSSLRSEDTAVYYCARAGQLWSDWYFDLWGRGTLVTVSS VL: DIQMTQSPSSLSASVGDRVTITCQASQDIRNYLNWYQQKPGKAPKLLIYAATALRTGVPSRFSGSGSGTDFTLTISSLQPEDFATYYCQQSYSHPLTFGQGTKVEIK | – | – | no binding
3 | MAdCAM antibody Clone ID 42 of Table 6 (scFv) (scFv) scFv: QVQLVQSGAEVKKPGSSVKVSCKASGGTLSRYGVSWVRQAPGQGLEWMGGIIPIFGTTNYAQKFQGRVTITADESTSTAYMELSSLRSEDTAVYYCARDRVYYDSSGYPTWYFDLWGRGTLVTVSSGGGGSGGGGSGGGGSGGGGSEIVMTQSPATLSVSPGERATLSCRASQSVSSSYLAWYQQKPGQAPRLLIYGASTRATGIPARFSGSGSGTEFTLTISSLQSEDFAVYYCQQYGSSPITFGQGTKVEIK | no binding | binds | –
4 | MAdCAM antibody Clone ID 45 of Table 6 (scFv) (scFv) scFv: EVQLLESGGGLVQPGGSLRLSCAASGFSVSSNYMSWVRQAPGKGLEWVAGISYDGSSKPYADSVKGRFTISRDNSKNTLYLQMNSLRAEDTAVYYCARSRGIAARPLQHWGQGTLVTVSSGGGGSGGGGSGGGGSGGGGSDIVMTQSPDSLAVSLGERATINCKSSQSVLYSSNNKNYLAWYQQKPGQPPKLLIYWASTRQSGVPDRFSGSGSGTDFTLTISSLQAEDVAVYYCHQYYGHPPTFGGGTKVEIK | no binding | binds | –
5 | MAdCAM antibody Clone ID 46 of Table 6 (scFv) (scFv) scFv: EVQLLESGGGLVQPGGSLRLSCAASGFSVSSNYMSWVRQAPGKGLEWVAGISYDGSSKPYADSVKGRFTISRDNSKNTLYLQMNSLRAEDTAVYYCARSRGIAARPLQHWGQGTLVTVSSGGGGSGGGGSGGGGSGGGGSDIVMTQSPDSLAVSLGERATINCKSSQSVLYSSNNKNYLAWYQQKPGQPPKLLIYQASTRQSGVPDRFSGSGSGTDFTLTISSLQAEDVAVYYCHQYYGHPPTFGGGTKVEIK | no binding | binds | –
6 | MAdCAM antibody Clone ID 44 of Table 6 (scFv) (scFv) scFv: EVQLVESGGGLVKPGGSLRLSCAASGFTFSSYWMSWVRQAPGKGLEWVSAIGTGGGTYYAAPVKGRFTISRDDSKNTLYLQMNSLKTEDTAVYYCAREWLVPYYGMDVWGQGTTVTVSSGGGGSGGGGSGGGGSGGGGSDIQMTQSPSSLSASVGDRVTITCRASQSISRWLAWYQQKPGKAPKLLIYGASNLQSGVPSRFSGSGSGTDFTLTISSLQPEDFATYYCQQSYSTPWTFGQGTKVEIK | no binding | binds | –
7 | MAdCAM antibody Clone ID 26 of Table 7 (IgG) (antibody, V domains shown, IgG format) VH: EVQLLESGGGLVQPGGSLRLSCAASGFTFSSYAMSWVRQAPGKGLEWVSYISSSSTYTNYADSVKGRFTISRDNSKNTLYLQMNSLRAEDTAVYYCARANSSSWYDWYFDLWGQGTLVTVSS VL: not shown | – | – | no binding
8 | MAdCAM antibody Clone ID 9 of Table 7 (IgG) (antibody, V domains shown, IgG format) VH: QVQLVQSGAEVKKPGASVKVSCKASGYTFTSYYMHWVRQAPGQGLEWMGIINHSGGSTSYAQKFQGRVTMTRDTSTSTVYMELSSLRSEDTAVYYCARPYSGWYFAFDIWGQGTLVTVSS VL: not shown | – | – | no binding
9 | MAdCAM antibody Clone ID 43 of Table 6 (scFv) (scFv) scFv: EVQLLESGGGLVQPGGSLRLSCAASGFTFDDFAMHWVRQAPGKGLEWVSGISGNGDSRYYADSVKGRFTISRDNSKNTLYLQMNSLRAEDTAVYYCARDASYGGNYGMDVWGQGTTVTVSSGGGGSGGGGSGGGGSGGGGSDIQMTQSPSSLSASVGDRVTITCQASQDIRNYLNWYQQKPGKAPKLLIYKASTLESGVPSRFSGSGSGTDFTLTISSLQPEDFATYYCQQANSFPLTFGPGTKVDIK | no binding | binds | –
10 | MAdCAM antibody Clone ID 40 of Table 6 (scFv) (scFv) scFv: QVQLVQSGAEVKKPGASVKVSCKASGYTFTSYGISWVRQAPGQGLEWMGIINPRGGSTIFAQKFQGRVTMTRDTSTSTVYMELSSLRSEDTAVYYCARGTRSSGWYGWFDPWGQGTLVTVSSGGGGSGGGGSGGGGSGGGGSDIQMTQSPSSLSASVGDRVTITCRASQGIGNWLAWYQQKPGKAPKLLIYAASNLETGVPSRFSGSGSGTDFTLTISSLQPEDFATYYCQQIHSYPLTFGGGTKVEIK | no binding | binds | –
11 | MAdCAM antibody Clone ID 47 of Table 6 (scFv) (scFv) scFv: EVQLLESGGGLVQPGGSLRLSCAASGFSFSDYGMHWVRQAPGKGLEWVSAISGSGGSTYYADSVKGRFTISRDNSKNTLYLQMNSLRAEDTAVYYCARDGGWQPAAILDYWGQGTLVTVSSGGGGSGGGGSGGGGSGGGGSDIQMTQSPSSLSASVGDRVTITCRASQGISNNLNWYQQKPGKAPKLLIYDASNLETGVPSRFSGSGSGTDFTLTISSLQPEDFATYYCQQSYSTPLTFGGGTKVEIK | no binding | – | –

Results, then the binder that gave them:

Row | binding result [1] | binding result [2] | binding result [3] | Binder
12 | – | – | no binding | MAdCAM antibody Clone ID 80 of Table 7 (IgG) (antibody, V domains shown, IgG format) VH: EVQLLESGGGLVQPGGSLRLSCAASGFTFDDYAMHWVRQAPGKGLEWVSAISGSGGSTYYADSVKGRFTISRDNSKNTLYLQMNSLRAEDTAVYYCAKDLGVVVPAALDYWGQGTTVTVSS VL: DIQMTQSPSSLSASVGDRVTITCQASQDISNHLNWYQQKPGKAPKLLIYDASNLEAGVPSRFSGSGSGTDFTLTISSLQPEDFATYYCQQSYSTPLTFGGGTKVEIK
13 | – | – | no binding | MAdCAM antibody Clone ID 27 of Table 7 (IgG) (antibody, V domains shown, IgG format) VH: EVQLLESGGGLVQPGGSLRLSCAASGFTFSSYQMSWVRQAPGKGLEWVSYISSSSTYTNYADSVKGRFTISRDNSKNTLYLQMNSLRAEDTAVYYCARANSSSWYDWYFDLWGQGTLVTVSS VL: not shown
14 | no binding | binds | – | MAdCAM antibody Clone ID 48 of Table 6 (scFv) (scFv) scFv: EVQLLESGGGLVQPGGSLRLSCAASGFTFSDHGMHWVRQAPGKGLEWVSVIYGGESTYYADSVKGRFTISRDNSKNTLYLQMNSLRAEDTAVYYCARDPAVAGGGIFDYWGQGTLVTVSSGGGGSGGGGSGGGGSGGGGSDIQMTQSPSSLSASVGDRVTITCRASQGISNYLAWYQQKPGKAPKLLIYDASNLETGVPSRFSGSGSGTDFTLTISSLQPEDFATYYCQQSYSTCYTFGQGTKLEIK
15 | no binding | – | – | MAdCAM antibody Clone ID 56 of Table 6 (scFv) (scFv) scFv: EVQLLESGGGLVQPGGSLRLSCAASGFTFDDYAMHWVRQAPGKGLEWVSAISGGGEDTYYADSVKGRFTISRDNSKNTLYLQMNSLRAEDTAVYYCARDASYGGNYGMDVWGQGTTVTVSSGGGGSGGGGSGGGGSGGGGSDIQMTQSPSSLSASVGDRVTITCQASQDIRNYLNWYQQKPGKAPKLLIYKASSLESGVPSRFSGSGSGTDFTLTISSLQPEDFATYYCQQANSYPVTFGGGTKVEIK
16 | no binding | – | – | MAdCAM antibody Clone ID 12 of Table 6 (scFv) (scFv) scFv: QVQLVQSGAEVKKPGASVKVSCKASGYTFTGYYMHWVRQAPGQGLEWMGWIGPNSGDTNYAQKFQGRVTMTRDTSTSTVYMELSSLRSEDTAVYYCARDLDHNWYFDLWGRGTLVTVSSGGGGSGGGGSGGGGSGGGGSDIVMTQSPLSLPVTPGEPASISCRSSQSLLHSNGYNYLDWYLQKPGQSPQLLIYSSSNRAPGVPDRFSGSGSGTDFTLKISRVEAEDVGVYYCMQALHIPLTFGGGTKVEIK
17 | no binding | – | – | MAdCAM antibody Clone ID 25 of Table 6 (scFv) (scFv) scFv: QVQLVQSGAEVKKPGASVKVSCKASGYTLTTWYMYWVRQAPGQGLEWMGWINPNRGATNYAQKFQGRVTMTRDTSTSTVYMELSSLRSEDTAVYYCAKGDLWGAMDVWGQGTLVTVSSGGGGSGGGGSGGGGSGGGGSDIQMTQSPSSLSASVGDRVTITCRASDNIGSWLAWYQQKPGKAPKLLIYAASSLQSGVPSRFSGSGSGTDFTLTISSLQPEDFATYYCQQGYSTPPTFGQGTKVEIK
18 | no binding | – | – | MAdCAM antibody Clone ID 30 of Table 6 (scFv) (scFv) scFv: QVQLVQSGAEVKKPGASVKVSCKASGYTLTTWYMYWVRQAPGQGLEWMGWINPNRGATNYAQKFQGRVTMTRDTSTSTVYMELSSLRSEDTAVYYCAKGDLWGAMDVWGQGTLVTVSSGGGGSGGGGSGGGGSGGGGSDIQMTQSPSSLSASVGDRVTITCRASDNIGSWLAWYQQKPGKAPKLLIYAASSLQSGVPSRFSGSGSGTDFTLTISSLQPEDFATYYCQQGYSTPPTFGQGTKVEIK
